Measurements from US20240190962A1 (IMMUNOWAKE, published 2024).
Like-named read-outs stand apart in the source and are kept apart here.

T1: human IL-2 receptor (IL-2Rα, IL-2Rβ, IL-2Rγ) (human, UniProt P01589 22-272; P14784 27-551; P31785 23-369)
T1 sequence (looked up) 1: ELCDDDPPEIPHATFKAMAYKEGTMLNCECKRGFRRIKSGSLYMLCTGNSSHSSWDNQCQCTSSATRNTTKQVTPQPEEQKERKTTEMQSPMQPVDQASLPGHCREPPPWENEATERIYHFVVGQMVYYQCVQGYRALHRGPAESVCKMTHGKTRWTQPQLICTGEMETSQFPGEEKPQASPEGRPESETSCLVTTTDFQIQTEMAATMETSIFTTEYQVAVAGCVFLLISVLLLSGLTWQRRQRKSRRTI
T1 sequence (looked up) 2: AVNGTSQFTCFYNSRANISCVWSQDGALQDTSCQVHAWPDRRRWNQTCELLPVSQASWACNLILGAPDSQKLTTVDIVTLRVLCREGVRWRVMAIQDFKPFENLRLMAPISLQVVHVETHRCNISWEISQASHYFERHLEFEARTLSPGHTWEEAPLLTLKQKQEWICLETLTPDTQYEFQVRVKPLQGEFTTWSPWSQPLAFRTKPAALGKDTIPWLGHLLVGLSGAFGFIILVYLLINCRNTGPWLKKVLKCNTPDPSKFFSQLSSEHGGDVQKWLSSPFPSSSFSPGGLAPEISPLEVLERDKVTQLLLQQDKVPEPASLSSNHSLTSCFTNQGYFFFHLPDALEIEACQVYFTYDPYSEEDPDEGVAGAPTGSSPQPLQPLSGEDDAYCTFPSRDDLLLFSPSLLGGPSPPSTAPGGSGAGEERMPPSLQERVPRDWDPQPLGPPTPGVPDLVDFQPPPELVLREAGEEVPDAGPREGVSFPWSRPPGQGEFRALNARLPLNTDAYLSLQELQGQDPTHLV
T1 sequence (looked up) 3: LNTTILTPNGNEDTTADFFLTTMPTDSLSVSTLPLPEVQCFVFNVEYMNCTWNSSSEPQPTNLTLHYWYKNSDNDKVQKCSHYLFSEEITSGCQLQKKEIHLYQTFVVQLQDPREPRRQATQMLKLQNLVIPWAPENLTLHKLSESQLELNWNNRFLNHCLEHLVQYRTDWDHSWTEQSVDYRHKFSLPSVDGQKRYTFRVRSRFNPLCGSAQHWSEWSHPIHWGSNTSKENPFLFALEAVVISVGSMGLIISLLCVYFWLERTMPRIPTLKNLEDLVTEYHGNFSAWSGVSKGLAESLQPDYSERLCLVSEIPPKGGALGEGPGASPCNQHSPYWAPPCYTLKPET

B1: IL-2(L18R/Q22E/R38D/K43E/E61R/Q126T)/PD-L1(mut2)-Fc (Fc fusion)
chain 1: FTVTVPKDLYVVEYGSNMTIECKFPVEKQLDLAALQVYWMMEDKNIIQFVHGEEDLKVQHSSYRQRARLLKDQLSLGNAALQITDVKLQDAGVYTCLIAYKGADYKRITVKVNAPYNKINQRILVVDPVTSEHELTCQAEGYPKAEVIWTSSDHQVLSGKTTTTNSKREEKLFNVTSTLRINTTTNEIFYCTFRRLDPEENHTAELVIPELPLAHPPNERGGGGSGGGDKTHTCPPCPAPEDEGGPSVFLFPPKPKDTLMISRTPEVTCVVVDVSHEDPEVKFNWYVDGVEVHNAKTKPREEQYNSTYRVVSVLTVLHQDWLNGKEYKCKVSNKALPAPIEKTISKAKGQPREPQVYVYPPSREEMTKNQVSLTCLVKGFYPSDIAVEWESNGQPENNYKTTPPVLDEDGSFALVSKLTVDKSRWQQGNVFSCSVMHEALHNHYTQKSLSLSPGK
chain 2: FTVTVPKDLYVVEYGSNMTIECKFPVEKQLDLAALQVYWMMEDKNIIQFVHGEEDLKVQHSSYRQRARLLKDQLSLGNAALQITDVKLQDAGVYTCLIAYKGADYKRITVKVNAPYNKINQRILVVDPVTSEHELTCQAEGYPKAEVIWTSSDHQVLSGKTTTTNSKREEKLFNVTSTLRINTTTNEIFYCTFRRLDPEENHTAELVIPELPLAHPPNERGGGSGAPTSSSTKKTQLQLEHLRLDLEMILNGINNYKNPKLTDMLTFEFYMPKKATELKHLQCLERELKPLEEVLNLAQSKNFHLRPRDLISNINVIVLELKGSETTFMCEYADETATIVEFLNRWITFCTSIISTLTGGGGSGGGDKTHTCPPCPAPEKKGGPSVFLFPPKPKDTLMISRTPEVTCVVVDVSHEDPEVKFNWYVDGVEVHNAKTKPREEQYNSTYRVVSVLTVLHQDWLNGKEYKCKVSNKALPAPIEKTISKAKGQPREPQVYVLPPSREEMTKNQVSLLCLVKGFYPSDIAVEWESNGQPENRYMTWPPVLDSDGSFFLYSKLTVDKSRWQQGNVFSCSVMHEALHNHYTQKSLSLSPGK
B2: IL-2(L18R/Q22E/R38D/K43E/E61R/Q126T/S130R)/PD-L1(mut2)-Fc (Fc fusion)
chain 1: FTVTVPKDLYVVEYGSNMTIECKFPVEKQLDLAALQVYWMMEDKNIIQFVHGEEDLKVQHSSYRQRARLLKDQLSLGNAALQITDVKLQDAGVYTCLIAYKGADYKRITVKVNAPYNKINQRILVVDPVTSEHELTCQAEGYPKAEVIWTSSDHQVLSGKTTTTNSKREEKLFNVTSTLRINTTTNEIFYCTFRRLDPEENHTAELVIPELPLAHPPNERGGGGSGGGDKTHTCPPCPAPEDEGGPSVFLFPPKPKDTLMISRTPEVTCVVVDVSHEDPEVKFNWYVDGVEVHNAKTKPREEQYNSTYRVVSVLTVLHQDWLNGKEYKCKVSNKALPAPIEKTISKAKGQPREPQVYVYPPSREEMTKNQVSLTCLVKGFYPSDIAVEWESNGQPENNYKTTPPVLDEDGSFALVSKLTVDKSRWQQGNVFSCSVMHEALHNHYTQKSLSLSPGK
chain 2: FTVTVPKDLYVVEYGSNMTIECKFPVEKQLDLAALQVYWMMEDKNIIQFVHGEEDLKVQHSSYRQRARLLKDQLSLGNAALQITDVKLQDAGVYTCLIAYKGADYKRITVKVNAPYNKINQRILVVDPVTSEHELTCQAEGYPKAEVIWTSSDHQVLSGKTTTTNSKREEKLFNVTSTLRINTTTNEIFYCTFRRLDPEENHTAELVIPELPLAHPPNERGGGSGAPTSSSTKKTQLQLEHLRLDLEMILNGINNYKNPKLTDMLTFEFYMPKKATELKHLQCLERELKPLEEVLNLAQSKNFHLRPRDLISNINVIVLELKGSETTFMCEYADETATIVEFLNRWITFCTSIIRTLTGGGGSGGGDKTHTCPPCPAPEKKGGPSVFLFPPKPKDTLMISRTPEVTCVVVDVSHEDPEVKFNWYVDGVEVHNAKTKPREEQYNSTYRVVSVLTVLHQDWLNGKEYKCKVSNKALPAPIEKTISKAKGQPREPQVYVLPPSREEMTKNQVSLLCLVKGFYPSDIAVEWESNGQPENRYMTWPPVLDSDGSFFLYSKLTVDKSRWQQGNVFSCSVMHEALHNHYTQKSLSLSPGK
B3: IL-12(E59A/F60A)/PD-L1(mut2)-Fc (Fc fusion)
chain 1: FTVTVPKDLYVVEYGSNMTIECKFPVEKQLDLAALQVYWMMEDKNIIQFVHGEEDLKVQHSSYRQRARLLKDQLSLGNAALQITDVKLQDAGVYTCLIAYKGADYKRITVKVNAPYNKINQRILVVDPVTSEHELTCQAEGYPKAEVIWTSSDHQVLSGKTTTTNSKREEKLFNVTSTLRINTTTNEIFYCTFRRLDPEENHTAELVIPELPLAHPPNERGGGGSGGGIWELKKDVYVVELDWYPDAPGEMVVLTCDTPEEDGITWTLDQSSEVLGSGKTLTIQVKAAGDAGQYTCHKGGEVLSHSLLLLHKKEDGIWSTDILKDQKEPKNKTFLRCEAKNYSGRFTCWWLTTISTDLTFSVKSSRGSSDPQGVTCGAATLSAERVRGDNKEYEYSVECQEDSACPAAEESLPIEVMVDAVHKLKYENYTSSFFIRDIIKPDPPKNLQLKPLKNSRQVEVSWEYPDTWSTPHSYFSLTFCVQVQGKSKREKKDRVFTDKTSATVICRKNASISVRAQDRYYSSSWSEWASVPCSGGGGSGGGSGGGGSRNLPVATPDPGMFPCLHHSQNLLRAVSNMLQKARQTLEFYPCTSEEIDHEDITKDKTSTVEACLPLELTKNESCLNSRETSFITNGSCLASRKTSFMMALCLSSIYEDLKMYQVEFKTMNAKLLMDPKRQIFLDQNMLAVIDELMQALNFNSETVPQKSSLEEPDFYKTKIKLCILLHAFRIRAVTIDRVMSYLNASGGGGSGGGDKTHTCPPCPAPEDEGGPSVFLFPPKPKDTLMISRTPEVTCVVVDVSHEDPEVKFNWYVDGVEVHNAKTKPREEQYNSTYRVVSVLTVLHQDWLNGKEYKCKVSNKALPAPIEKTISKAKGQPREPQVYVYPPSREEMTKNQVSLTCLVKGFYPSDIAVEWESNGQPENNYKTTPPVLDEDGSFALVSKLTVDKSRWQQGNVFSCSVMHEALHNHYTQKSLSLSPGK
chain 2: FTVTVPKDLYVVEYGSNMTIECKFPVEKQLDLAALQVYWMMEDKNIIQFVHGEEDLKVQHSSYRQRARLLKDQLSLGNAALQITDVKLQDAGVYTCLIAYKGADYKRITVKVNAPYNKINQRILVVDPVTSEHELTCQAEGYPKAEVIWTSSDHQVLSGKTTTTNSKREEKLFNVTSTLRINTTTNEIFYCTFRRLDPEENHTAELVIPELPLAHPPNERGGGGSGGGDKTHTCPPCPAPEKKGGPSVFLFPPKPKDTLMISRTPEVTCVVVDVSHEDPEVKFNWYVDGVEVHNAKTKPREEQYNSTYRVVSVLTVLHQDWLNGKEYKCKVSNKALPAPIEKTISKAKGQPREPQVYVLPPSREEMTKNQVSLLCLVKGFYPSDIAVEWESNGQPENRYMTWPPVLDSDGSFFLYSKLTVDKSRWQQGNVFSCSVMHEALHNHYTQKSLSLSPGK

Columns and labels:
Assay in all cases: cell-based or functional assay
[1] = target: T1, human IL-2 receptor (IL-2Rα, IL-2Rβ, …)
[2] = target: T1, human IL-2 receptor (IL-2Rα, IL-2Rβ, …); remark: listed apart in the source
[3] = target: human IL-12 receptor complex (IL-12Rβ1, IL-12Rβ2) (human, UniProt P42701 24-662; Q99665 24-862)
Sequence of human IL-12 receptor complex (IL-12Rβ1, IL-12Rβ2) (Q99665 24-862, chain 2 of 2, other chains not shown): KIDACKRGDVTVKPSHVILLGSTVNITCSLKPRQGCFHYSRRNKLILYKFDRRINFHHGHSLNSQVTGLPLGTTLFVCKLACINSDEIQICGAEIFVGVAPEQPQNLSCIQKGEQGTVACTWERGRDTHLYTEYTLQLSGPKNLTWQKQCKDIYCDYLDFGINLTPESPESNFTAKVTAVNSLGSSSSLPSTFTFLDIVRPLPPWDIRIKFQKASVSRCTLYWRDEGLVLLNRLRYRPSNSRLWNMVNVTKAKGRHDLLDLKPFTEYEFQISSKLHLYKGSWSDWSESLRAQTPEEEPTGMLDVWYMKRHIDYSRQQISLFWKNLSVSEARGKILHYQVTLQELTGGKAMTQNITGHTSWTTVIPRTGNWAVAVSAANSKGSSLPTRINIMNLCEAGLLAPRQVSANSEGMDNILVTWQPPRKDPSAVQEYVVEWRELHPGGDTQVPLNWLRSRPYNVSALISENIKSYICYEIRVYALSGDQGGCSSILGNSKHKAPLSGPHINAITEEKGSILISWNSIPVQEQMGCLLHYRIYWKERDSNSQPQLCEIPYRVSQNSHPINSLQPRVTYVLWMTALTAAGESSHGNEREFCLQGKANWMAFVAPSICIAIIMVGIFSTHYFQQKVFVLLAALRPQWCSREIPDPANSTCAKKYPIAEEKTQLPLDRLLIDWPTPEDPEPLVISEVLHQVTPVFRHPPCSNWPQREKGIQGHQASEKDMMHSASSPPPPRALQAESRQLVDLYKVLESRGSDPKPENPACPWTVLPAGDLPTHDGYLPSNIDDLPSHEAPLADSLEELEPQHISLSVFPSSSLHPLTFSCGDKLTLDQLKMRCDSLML

| Binder | IL-2 biological activity, HEK-IL-2 [1] | IL-2 biological activity, HEK-IL-2-PD-1 [1] | IL-2 biological activity, HEK-IL-2 [2] | IL-2 biological activity, HEK-IL-2-PD-1 [2] | IL-12 biological activity, HEK-IL-12 [3] | IL-12 biological activity, HEK-IL-12-PD-1 [3] |
| --- | --- | --- | --- | --- | --- | --- |
| B1 | < 0.1% | 5% | – | – | – | – |
| B2 | < 0.1% | < 0.1% | – | – | – | – |
| B3 | – | – | < 0.1% | < 0.1% | < 0.2% | 24% |
